Source: patent US6958236B2, “Control of gene expression in plants” (priority 2000, dated 2005)

Tested on: pCGS206 (luciferase reporter with response elements for the GAL4 DNA binding domain)
Experiment: Maize BMS cells bombarded with GAL4 luciferase reporter and receptor vector, GUS-normalized luciferase
Assay type: cell-based
Details: for Experiment #1 Luciferase / Experiment #2 Luciferase / Experiment #1 Fold Induction / Experiment #2 Fold Induction: Example 26; for Experiment #1 Fold Induction / Experiment #2 Fold Induction: + 10 μM Teb vs without; for Experiment #1 RLU / Experiment #2 RLU: Example 28, GUS-normalized; for Fold Induction with Teb Relative to Receptor with EtOH / Fold Induction with Teb Relative to Reporter with EtOH: 20 μM Teb; for Normalized Average (EtOH): unliganded background
Experimental: (§1) Maize BMS (Black Mexican Sweet) cultured cells are transfected with pCGS206 and pCGS208 by high velocity microprojectile bombardment. In addition, an expression plasmid containing the maize ubiquitin promoter driving the expression of β-glucuronidase (GUS) is added to the transfection to serve as an internal control to normalize against variations among the samples.
(§2) Transfections are treated and cell lysates are made essentially as described in U.S. Pat. No. 5,880,333. […] Both luciferase and GUS assays are performed with 20 μl of cell lysate for each assay using the Promega Luciferase Kit (Promega cat #E1500) and GUS-Light Kit (Tropix) respectively. Relative light units are determined using a Turner Designs TD 20/20 luminometer.
In addition to tebufenozide, methoxytebufenozide (“MethoxyTeb”) is also capable of inducing gene expression in maize BMS cells. Both pCGS206 and pCGS208 are transfected as described above and methoxytebufenozide is added in place of tebufenozide at 25 μM and 10 μM.
Maize BMS cells are transfected and assayed as in Example 12.
as §1, with “Transformation of maize suspension cells, chemical treatment, and reporter activity assays are performed as described in Example 12. Maize” for “Maize”, “pCGS206 (pBS-bz1TATA/intronLUC), pCGS203 (G(M)MV), pCGS672 (G(M)MC),” for “pCGS206”, “pCGS678 (G(M)MD)” for “pCGS208”
as §2, with “Maize BMS cells are bombarded with reporter vector pCGS206 and chimeric receptors and treated with tebufenozide essentially as described in Example 12. Transfections” for “Transfections”, “units (RLU)” for “units”

[1] = BMS cells, reporter pCGS206, no ligand

Row | Molecule | Experiment #1 Luciferase (+ 10 μM Teb) | Experiment #2 Luciferase (+ 10 μM Teb) | Experiment #1 Fold Induction [fold] | Experiment #2 Fold Induction [fold] | Experiment #1 Luciferase [1] | Experiment #2 Luciferase [1] | Experiment #1 RLU [1] [RLU] | Experiment #2 RLU [1] [RLU] | also measured
1 | G(M)MC: EcR chimera: GAL4 DBD, Manduca sexta D and E domains, maize C1 activation domain; SEQ ID NO:134-135 (protein) MQQLYVDFFSPAFIRYLFAWYCFFCRCSPCCLVLLLQGSATMKLLSSIEQACDICRLKKLKCSKEKPKCAKCLKNNWECRYSPKTKRSPLTRAHLTEVESRLERLEQLFLLIFPREDLDMILKMDSLQDIKALLTGLFVQDNVNKDAVTDRLASVETDMPLTLRQHRISATSSSEESSNKGQRQLTVSTRMRPECVVPESTCKNKRREKEAQREKDKLPVSTTTVDDHMPAIMQCDPPPPEAARIHEVVPRFLTEKLMEQNRLKNVTPLSANQKSLIARLVWYQEGYEQPSEEDLKRVTQTWQLEEEEEEETDMPFRQITEMTILTVQLIVEFAKGLPGFSKISQSDQITLLKASSSEVMMLRVARRYDAATDSVLFANNQAYTRDNYRKAGMSYVIEDLLHFCRCMYSMSMDNVHYALLTAIVIFSDRPGLEQPLLVEEIQRYYLKTLRVYILNQHSASPRCAVLFGKILGVLTELRTLGTQNSNMCISLKLKNRKLPPFLEEIWDVAEVSTTKLPKAVRCTGGLFFFHRDTTPAHAGETATPMAGGGGGGGGEAGSSDDCSSAASVSLRVGSHDEPCFSGDGDGDWMDDVRALASFLESDEDWLRCQTAGQLA | 53.20 | 28.05 | 26.0 | 17.8 | 2.05 | 1.58 | – | – | –
2 | G(M)MD: EcR chimera: GAL4 DBD, Manduca sexta D and E domains, maize Dof1 activation domain; SEQ ID NO:136-137 (protein) MQQLYVDFFSPAFIRYLFAWYCFFCRCSPCCLVLLLQGSATMKLLSSIEQACDICRLKKLKCSKEKPKCAKCLKNNWECRYSPKTKRSPLTRAHLTEVESRLERLEQLFLLIFPREDLDMILKMDSLQDIKALLTGLFVQDNVNKDAVTDRLASVETDMPLTLRQHRISATSSSEESSNKGQRQLTVSTRMRPECVVPESTCKNKRREKEAQREKDKLPVSTTTVDDHMPAIMQCDPPPPEAARIHEVVPRFLTEKLMEQNRLKNVTPLSANQKSLIARLVWYQEGYEQPSEEDLKRVTQTWQLEEEEEEETDMPFRQITEMTILTVQLIVEFAKGLPGFSKISQSDQITLLKASSSEVMMLRVARRYDAATDSVLFANNQAYTRDNYRKAGMSYVIEDLLHFCRCMYSMSMDNVHYALLTAIVIFSDRPGLEQPLLVEEIQRYYLKTLRVYILNQHSASPRCAVLFGKILGVLTELRTLGTQNSNMCISLKLKNRKLPPFLEEIWDVAEVSTTKLELATAADPGKTATTTTTTTSEITTETGALEDSDSLAHLLLQPGTEDAEAVALGLGLSDFPSAGKAVLDDEDSFVWPAASFDMGACWAGAGFADPDPACIFLNLP | 6.37 | 9.14 | 3.0 | 7.8 | 2.14 | 1.18 | – | – | –
3 | GV(M)M: EcR chimera: GAL4 DBD, internal VP16, Manduca D and E domains; SEQ ID NO:147-148 (protein) MQQLYVDFFSPAFIRYLFAWYCFFCRCSPCCLVLLLQGSATMKLLSSIEQACDICRLKKLKCSKEKPKCAKCLKNNWECRYSPKTKRSPLTRAHLTEVESRLERLEQLFLLIFPREDLDMILKMDSLQDIKALLTGLFVQDNVNKDAVTDRLASVETDMPLTLRQHRISATSSSEESSNKGQRQLTVSTRMRPECVVPESTCKLAPPTDVSLGDELHLDGEDVAMAHADALDDFDLDMLGDGDSPGPGFTPHDSAPYGALDMADFEFEQMFTDALGIDEYGGNTCKNKRREKEAQREKDKLPVSTTTVDDHMPAIMQCDPPPPEAARIHEVVPRFLTEKLMEQNRLKNVTPLSANQKSLIARLVWYQEGYEQPSEEDLKRVTQTWQLEEEEEEETDMPFRQITEMTILTVQLIVEFAKGLPGFSKISQSDQITLLKASSSEVMMLRVARRYDAATDSVLFANNQAYTRDNYRKAGMSYVIEDLLHFCRCMYSMSMDNVHYALLTAIVIFSDRPGLEQPLLVEEIQRYYLKTLRVYILNQHSASPRCAVLFGKILGVLTELRTLGTQNSNMCISLKLKNRKLPPFLEEIWDVAEVSTTKL | – | – | – | – | – | – | 1.71 | 1.77 | –
4 | G(E)MV: EcR chimera: GAL4 DBD, European corn borer D domain, Manduca sexta E domain, VP16; SEQ ID NO:126-127 (protein) MQQLYVDFFSPAFIRYLFAWYCFFCRCSPCCLVLLLQGSATMKLLSSIEQACDICRLKKLKCSKEKPKCAKCLKNNWECRYSPKTKRSPLTRAHLTEVESRLERLEQLFLLIFPREDLDMILKMDSLQDIKALLTGLFVQDNVNKDAVTDRLASVETDMPLTLRQHRISATSSSEESSNKGQRQLTVSTRMRPECVVPETQCAQKRKEKKAQREKDKLPVSTTTVDDHMPPIMQCDPPPPEAARILECLQHEVVPRFLSEKLMEQNRLKNIPPLTANQQFLIARLVWYQEGYEQPSEEDLKRVTQTWQLEEEEEEETDMPFRQITEMTILTVQLIVEFAKGLPGFSKISQSDQITLLKASSSEVMMLRVARRYDAATDSVLFANNQAYTRDNYRKAGMSYVIEDLLHFCRCMYSMSMDNVHYALLTAIVIFSDRPGLEQPLLVEEIQRYYLKTLRVYILNQHSASPRCAVLFGKILGVLTELRTLGTQNSNMCISLKLKNRKLPPFLEEIWDVAEVSTTKLAPPTDVSLGDELHLDGEDVAMAHADALDDFDLDMLGDGDSPGPGFTPHDSAPYGALDMADFEFEQMFTDALGIDEYGG | – | – | – | – | – | – | – | – | Fold Induction with Teb Relative to Receptor with EtOH (Example 24, Experiment 1): 34 fold; Fold Induction with Teb Relative to Reporter with EtOH (Example 24, Experiment 1): 135 fold; Normalized Average (EtOH) (Example 24, Experiment 1, BMS cells): 14.499; Fold Induction with Teb Relative to Receptor with EtOH (Example 24, Experiment 2): 16 fold; Fold Induction with Teb Relative to Reporter with EtOH (Example 24, Experiment 2): 95 fold; Normalized Average (EtOH) (Example 24, Experiment 2, BMS cells): 2.537
5 | VG(M)M: EcR chimera: N-terminal VP16, GAL4 DBD, Manduca D and E domains; SEQ ID NO:142-143 (protein) MQQLYVDFFSPAFIRYLFAWYCFFCRCSPCCLVLLLQGSATMHVKLAPPTDVSLGDELHLDGEDVAMAHADALDDFDLDMLGDGDSPGPGFTPHDSAPYGALDMADFEFEQMFTDALGIDEYGGHVTSKLLSSIEQACDICRLKKLKCSKEKPKCAKCLKNNWECRYSPKTKRSPLTRAHLTEVESRLERLEQLFLLIFPREDLDMILKMDSLQDIKALLTGLFVQDNVNKDAVTDRLASVETDMPLTLRQHRISATSSSEESSNKGQRQLTVSTRMRPECVVPESTCKNKRREKEAQREKDKLPVSTTTVDDHMPAIMQCDPPPPEAARIHEVVPRFLTEKLMEQNRLKNVTPLSANQKSLIARLVWYQEGYEQPSEEDLKRVTQTWQLEEEEEEETDMPFRQITEMTILTVQLIVEFAKGLPGFSKISQSDQITLLKASSSEVMMLRVARRYDAATDSVLFANNQAYTRDNYRKAGMSYVIEDLLHFCRCMYSMSMDNVHYALLTAIVIFSDRPGLEQPLLVEEIQRYYLKTLRVYILNQHSASPRCAVLFGKILGVLTELRTLGTQNSNMCISLKLKNRKLPPFLEEIWDVAEVSTTKL | – | – | – | – | – | – | 2.21 | 2.52 | –
